Columns and labels:
HeLa Kyoto [1] = test: solubility in G1/S (NP-40 vs SDS abundance) (log2 ratio); higher = more soluble; settings: cell cycle stage: G1/S
HeLa Kyoto [2] = test: solubility change mitosis vs G1/S (difference of NP-40 vs SDS log2 ratios) (log2 ratio difference); higher = more soluble in mitosis
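For solubility change mitosis vs G1/S (difference of NP-40 vs SDS log2 ratios) in this document: synchronized HeLa Kyoto cells (double thymidine block for G1/S, nocodazole release for mitosis), protein amounts in NP-40 versus SDS lysates quantified by mass spectrometry, three biological replicates.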
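For solubility in G1/S (NP-40 vs SDS abundance) in this document: HeLa Kyoto cells arrested at G1/S by double thymidine block, proteins quantified by TMT10plex mass spectrometry in mild NP-40 versus SDS extracts, three biological replicates.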

Sequence	solubility in G1/S (log2) (HeLa Kyoto [1])	solubility change mitosis (log2) (HeLa Kyoto [2])
MAADLNLEWISLPRSWTYGITRGGRVFFINEEAKSTTWLHPVTGEAVVTGHRRQSTDLPTGWEEAYTFEGARYYINHNERKVTCKHPVTGQPSQDNCIFVVNEQTVATMTSEEKKERPISMINEASNYNVTSDYAVHPMSPVGRTSRASKKVHNFGKRSNSIKRNPNAPVVRRGWLYKQDSTGMKLWKKRWFVLSDLCLFYYRDEKEEGILGSILLPSFQIALLTSEDHINRKYAFKAAHPNMRTYYFCTDTGKEMELWMKAMLDAALVQTEPVKRVDKITSENAPTKETNNIPNHRVLIKPEIQNNQKNKEMSKIEEKKALEAEKYGFQKDGQDRPLTKINSVKLNSLPSEYESGSACPAQTVHYRPINLSSSENKIVNVSLADLRGGNRPNTGPLYTEADRVIQRTNSMQQLEQWIKIQKGRGHEEETRGVISYQTLPRNMPSHRAQIMARYPEGYRTLPRNSKTRPESICSVTPSTHDKTLGPGAEEKRRSMRDDTMWQLYEWQQRQFYNKQSTLPRHSTLSSPKTMVNISDQTMHSIPTSPSHGSIAAYQGYSPQRTYRSEVSSPIQRGDVTIDRRHRAHHPKHVYVPDRRSVPAGLTLQSVSPQSLQGKTLSQDEGRGTLYKYRPEEVDIDAKLSRLCEQDKVVHALEEKLQQLHKEKYTLEQALLSASQEIEMHADNPAAIQTVVLQRDDLQNGLLSTCRELSRATAELERAWREYDKLEYDVTVTRNQMQEQLDHLGEVQTESAGIQRAQIQKELWRIQDVMEGLSKHKQQRGTTEIGMIGSKPFSTVKYKNEGPDYRLYKSEPELTTVAEVDESNGEEKSEPVSEIETSVVKGSHFPVGVVPPRAKSPTPESSTIASYVTLRKTKKMMDLRTERPRSAVEQLCLAESTRPRMTVEEQMERIRRHQQACLREKKKGLNVIGASDQSPLQSPSNLRDNPFRTTQTRRRDDKELDTAIRENDVKPDHETPATEIVQLKETEPQNVDFSKELKKTENISYEMLFEPEPNGVNSVEMMDKERNKDKMPEDVTFSPQDETQTANHKPEEHPEENTKNSVDEQEETVISYESTPEVSRGNQTMAVKSLSPSPESSASPVPSTQPQLTEGSHFMCV [PLEKHA5]	-0.128	0.0805
MAAEALAAEAVASRLERQEEDIRWLWSEVERLRDEQLNAPYSCQAEGPCLTREVAQLRAENCDLRHRLCSLRLCLAEERSRQATLESAELEAAQEAGAQPPPSQSQDKDMKKKKMKESEADSEVKHQPIFIKERLKLFEILKKDHQLLLAIYGKKGDTSNIITVRVADGQTVQGEVWKTTPYQVAAEISQELAESTVIAKVNGELWDLDRPLEGDSSLELLTFDNEEAQAVYWHSSAHILGEAMELYYGGHLCYGPPIENGFYYDMFIEDRAVSSTELSALENICKAIIKEKQPFERLEVSKEILLEMFKYNKFKCRILNEKVNTATTTVYRCGPLIDLCKGPHVRHTGKIKTIKIFKNSSTYWEGNPEMETLQRIYGISFPDNKMMRDWEKFQEEAKNRDHRKIGKEQELFFFHDLSPGSCFFLPRGAFIYNTLTDFIREEYHKRDFTEVLSPNMYNSKLWEASGHWQHYSENMFTFEIEKDTFALKPMNCPGHCLMFAHRPRSWREMPIRFADFGVLHRNELSGTLSGLTRVRRFQQDDAHIFCTVEQIEEEIKGCLQFLQSVYSTFGFSFQLNLSTRPENFLGEIEMWNEAEKQLQNSLMDFGEPWKMNPGDGAFYGPKIDIKIKDAIGRYHQCATIQLDFQLPIRFNLTYVSKDGDDKKRPVIIHRAILGSVERMIAILSENYGGKWPFWLSPRQVMVIPVGPTCEKYALQVSSEFFEEGFMADVDLDHSCTLNKKIRNAQLAQYNFILVVGEKEKIDNAVNVRTRDNKIHGEILVTSAIDKLKNLRKTRTLNAEEAF [TARSL2]	-0.498	0.191
MAAELRMILYEDDSVQVQYVDGSTLQLSPCGSEFLFEKSPPVSAHPLEQPERIRQRTHFVISTYREQLQRALDFRNSSATCPFLSETIIPSERKKHIFIDITEVRWPSLDTDGTMIYMESGIVKITSLDGHAYLCLPRSQHEFTVHFLCKVSQKSDSSAVLSETNNKAPKDKLVEKTGKICIRGNLPGQRLKNKENEFHCQIMKSKETLKKMSCVNGTEGREELPSPGTKHTCVYTWVKQCWSVAACPEEWKYPLSLALHFHNKISNMSKIDAHITQSRFLTSDISEERGKVVSVLPRALSLSCPVPHLHRWNFCDSLLQRQSDEYSYPELVKMVWYKGVTYRLTHQNMNSIEIYSGDGSVFKSEGAYFGNYFTYYSIQEGSGKREEKTYSVNNLPPDRPGSPFTVGSLIKQATRILQHCVKMRLSLSHNYRICCWKMVPGINDSNILPLVLKESLIPSVGRFLAYSDDKVHAIFLDGITLTLNWNFSSPIEKRQVNQGLNLGWCKLTFPDGQEQLIQIEHPEPYERYVTTVTSWCRRLTQTSPREMPTHSSSSVLQENWSVASELEKIQKFNLLLENSGILNQISNKKNEQQSFDHYKPGSSETLLGEVNENRVSIALKKTSEILHDIDCLLSNSKK [C5ORF34]	-0.136	-0.0287
MAAGAGAGSAPRWLRALSEPLSAAQLRRLEEHRYSAAGVSLLEPPLQLYWTWLLQWIPLWMAPNSITLLGLAVNVVTTLVLISYCPTATEEAPYWTYLLCALGLFIYQSLDAIDGKQARRTNSCSPLGELFDHGCDSLSTVFMAVGASIAARLGTYPDWFFFCSFIGMFVFYCAHWQTYVSGMLRFGKVDVTEIQIALVIVFVLSAFGGATMWDYTIPILEIKLKILPVLGFLGGVIFSCSNYFHVILHGGVGKNGSTIAGTSVLSPGLHIGLIIILAIMIYKKSATDVFEKHPCLYILMFGCVFAKVSQKLVVAHMTKSELYLQDTVFLGPGLLFLDQYFNNFIDEYVVLWMAMVISSFDMVIYFSALCLQISRHLHLNIFKTACHQAPEQVQVLSSKSHQNNMD [CHPT1]	-0.277	-0.173
MAAGGSGGRASCPPGVGVGPGTGGSPGPSANAAATPAPGNAAAAAAAAAAAAAAPGPTPPAPPGPGTDAQAAGAERAEEAAGPGAAALQREAAYNWQASKPTVQERFAFLFNNEVLCDVHFLVGKGLSSQRIPAHRFVLAVGSAVFDAMFNGGMATTSTEIELPDVEPAAFLALLKFLYSDEVQIGPETVMTTLYTAKKYAVPALEAHCVEFLKKNLRADNAFMLLTQARLFDEPQLASLCLENIDKNTADAITAEGFTDIDLDTLVAVLERDTLGIREVRLFNAVVRWSEAECQRQQLQVTPENRRKVLGKALGLIRFPLMTIEEFAAGPAQSGILVDREVVSLFLHFTVNPKPRVEFIDRPRCCLRGKECSINRFQQVESRWGYSGTSDRIRFSVNKRIFVVGFGLYGSIHGPTDYQVNIQIIHTDSNTVLGQNDTGFSCDGSASTFRVMFKEPVEVLPNVNYTACATLKGPDSHYGTKGLRKVTHESPTTGAKTCFTFCYAAGNNNGTSVEDGQIPEVIFYT [BTBD2]	-0.317	0.0341
MAALGVLESDLPSAVTLLKNLQEQVMAVTAQVKSLTQKVQAGAYPTEKGLSFLEVKDQLLLMYLMDLTHLILDKASGGSLQGHDAVLRLVEIRTVLEKLRPLDQKLKYQIDKLIKTAVTGSLSENDPLRFKPHPSNMMSKLSSEDEEEDEAEDDQSEASGKKSVKGVSKKYVPPRLVPVHYDETEAEREKKRLERAKRRALSSSVIRELKEQYSDAPEEIRDARHPHVTRQSQEDQHRINYEESMMVRLSVSKREKGRRKRANVMSSQLHSLTHFSDISALTGGTVHLDEDQNPIKKRKKIPQKGRKKKGFRRRR [NGDN]	-1.83	0.93
MAAPVRLGRKRPLPACPNPLFVRWLTEWRDEATRSRRRTRFVFQKALRSLRRYPLPLRSGKEAKILQHFGDGLCRMLDERLQRHRTSGGDHAPDSPSGENSPAPQGRLAEVQDSSMPVPAQPKAGGSGSYWPARHSGARVILLVLYREHLNPNGHHFLTKEELLQRCAQKSPRVAPGSARPWPALRSLLHRNLVLRTHQPARYSLTPEGLELAQKLAESEGLSLLNVGIGPKEPPGEETAVPGAASAELASEAGVQQQPLELRPGEYRVLLCVDIGETRGGGHRPELLRELQRLHVTHTVRKLHVGDFVWVAQETNPRDPANPGELVLDHIVERKRLDDLCSSIIDGRFREQKFRLKRCGLERRVYLVEEHGSVHNLSLPESTLLQAVTNTQVIDGFFVKRTADIKESAAYLALLTRGLQRLYQGHTLRSRPWGTPGNPESGAMTSPNPLCSLLTFSDFNAGAIKNKAQSVREVFARQLMQVRGVSGEKAAALVDRYSTPASLLAAYDACATPKEQETLLSTIKCGRLQRNLGPALSRTLSQLYCSYGPLT [MUS81]	-0.347	0.243
MAAQIPESDQIKQFKEFLGTYNKLTETCFLDCVKDFTTREVKPEETTCSEHCLQKYLKMTQRISMRFQEYHIQQNEALAAKAGLLGQPR [TIMM9]	-0.307	0.239
MAAVKASTSKATRPWYSHPVYARYWQHYHQAMAWMQSHHNAYRKAVESCFNLPWYLPSALLPQSSYDNEAAYPQSFYDHHVAWQDYPCSSSHFRRSGQHPRYSSRIQASTKEDQALSKEEEMETESDAEVECDLSNMEITEELRQYFAETERHREERRRQQQLDAERLDSYVNADHDLYCNTRRSVEAPTERPGERRQAEMKRLYGDSAAKIQAMEAAVQLSFDKHCDRKQPKYWPVIPLKF [GEMIN8]	0.511	0.219
MADFEELRNMVSSFRVSELQVLLGFAGRNKSGRKHDLLMRALHLLKSGCSPAVQIKIRELYRRRYPRTLEGLSDLSTIKSSVFSLDGGSSPVEPDLAVAGIHSLPSTSVTPHSPSSPVGSVLLQDTKPTFEMQQPSPPIPPVHPDVQLKNLPFYDVLDVLIKPTSLVQSSIQRFQEKFFIFALTPQQVREICISRDFLPGGRRDYTVQVQLRLCLAETSCPQEDNYPNSLCIKVNGKLFPLPGYAPPPKNGIEQKRPGRPLNITSLVRLSSAVPNQISISWASEIGKNYSMSVYLVRQLTSAMLLQRLKMKGIRNPDHSRALIKEKLTADPDSEIATTSLRVSLMCPLGKMRLTIPCRAVTCTHLQCFDAALYLQMNEKKPTWICPVCDKKAAYESLILDGLFMEILNDCSDVDEIKFQEDGSWCPMRPKKEAMKVSSQPCTKIESSSVLSKPCSVTVASEASKKKVDVIDLTIESSSDEEEDPPAKRKCIFMSETQSSPTKGVLMYQPSSVRVPSVTSVDPAAIPPSLTDYSVPFHHTPISSMSSDLPGLDFLSLIPVDPQYCPPMFLDSLTSPLTASSTSVTTTSSHESSTHVSSSSSRSETGVITSSGSNIPDIISLD [PIAS2]	0.155	-0.0526
